Test results published in US20140087995A1 (published 2014).
Numbered stars: 1 amine (or outer) side, 2 acyl side, 3 side chain; on linkers, the order of the positions; unused ones are H or OH. Bridge positions count the residues as written; N and C are the ends. Square brackets hold non-standard residues; d marks the D form. Side chains are listed from the residue outwards. Ends that are not written are not given here. * marks the point of attachment. C20 diacid = O=C(O)CCCCCCCCCCCCCCCCCCC(=O)*; γGlu = O=C(O)[C@H](CCC(=O)[*:2])N[*:1]

T1: rat calcitonin receptor (rat, UniProt P32214 25-516)
T1 construct: whole, on cells; Used as membranes prepared from the transfected cells (Assay VIII); also called rCTR; rat calcitonin (a) receptor
T1 sequence (looked up): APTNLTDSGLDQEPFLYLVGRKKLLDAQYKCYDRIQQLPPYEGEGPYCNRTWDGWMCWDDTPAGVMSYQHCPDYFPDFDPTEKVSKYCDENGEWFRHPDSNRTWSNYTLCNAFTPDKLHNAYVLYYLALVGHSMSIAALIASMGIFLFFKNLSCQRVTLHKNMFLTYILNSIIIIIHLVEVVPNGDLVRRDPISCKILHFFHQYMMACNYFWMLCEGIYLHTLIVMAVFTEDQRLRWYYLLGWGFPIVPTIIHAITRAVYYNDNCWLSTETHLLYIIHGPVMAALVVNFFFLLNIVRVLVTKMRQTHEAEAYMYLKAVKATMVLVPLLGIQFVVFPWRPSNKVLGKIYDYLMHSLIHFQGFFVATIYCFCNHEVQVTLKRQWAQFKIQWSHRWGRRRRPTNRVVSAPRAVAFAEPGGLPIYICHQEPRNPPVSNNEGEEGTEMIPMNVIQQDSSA

T2: rat amylin receptor (rat calcitonin receptor + rat RAMP 3) (rat, UniProt P32214 25-516; Q9JJ73 23-147)
T2 construct: whole, on cells; Used as membranes prepared from the transfected cells (Assay VI); also called rAmylin-R; rat amylin 3(a) receptor
T2 sequence (looked up) 1: T1 sequence (looked up)
T2 sequence (looked up) 2: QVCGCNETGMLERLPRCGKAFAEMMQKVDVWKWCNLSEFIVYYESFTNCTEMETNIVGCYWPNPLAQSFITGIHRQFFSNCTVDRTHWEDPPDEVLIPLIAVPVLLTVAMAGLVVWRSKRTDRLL

T3: human calcitonin receptor (human, UniProt P30988 25-474)
T3 sequence (looked up): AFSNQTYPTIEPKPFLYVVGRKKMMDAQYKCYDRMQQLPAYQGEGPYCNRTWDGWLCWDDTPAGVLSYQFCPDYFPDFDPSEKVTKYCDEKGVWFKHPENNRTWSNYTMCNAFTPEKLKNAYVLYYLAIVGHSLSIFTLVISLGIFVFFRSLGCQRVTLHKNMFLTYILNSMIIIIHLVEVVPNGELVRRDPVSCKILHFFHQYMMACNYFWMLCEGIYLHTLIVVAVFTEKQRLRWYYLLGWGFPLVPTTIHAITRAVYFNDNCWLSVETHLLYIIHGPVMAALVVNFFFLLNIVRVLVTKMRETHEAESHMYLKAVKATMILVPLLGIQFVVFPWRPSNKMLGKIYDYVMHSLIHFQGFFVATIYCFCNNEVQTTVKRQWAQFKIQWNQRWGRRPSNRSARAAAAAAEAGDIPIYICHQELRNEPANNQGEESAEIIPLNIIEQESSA

B1: N^ε1-[(4S)-4-carboxy-4-[[(4S)-4-carboxy-4-(19-carboxynonadecanoylamino)butanoyl]amino]butanoyl]-[D-Asp14,Arg17,Pro21,Pro27,Arg35]-h-amylin (peptide)
peptide: K([γGlu-γGlu-C20 diacid])CNTATCATQRLA[dD]FLRHSSPNFGAIPSSTNVGSRTY-NH2
modifications: disulfide 2-7; N-terminus assumed
SMILES: CC[C@H](C)[C@H](NC(=O)[C@H](C)NC(=O)CNC(=O)[C@H](Cc1ccccc1)NC(=O)[C@H](CC(N)=O)NC(=O)[C@@H]1CCCN1C(=O)[C@H](CO)NC(=O)[C@H](CO)NC(=O)[C@H](Cc1c[nH]cn1)NC(=O)[C@H](CCCNC(=N)N)NC(=O)[C@H](CC(C)C)NC(=O)[C@H](Cc1ccccc1)NC(=O)[C@@H](CC(=O)O)NC(=O)[C@H](C)NC(=O)[C@H](CC(C)C)NC(=O)[C@H](CCCNC(=N)N)NC(=O)[C@H](CCC(N)=O)NC(=O)[C@@H](NC(=O)[C@H](C)NC(=O)[C@@H]1CSSC[C@H](NC(=O)[C@@H](N)CCCCNC(=O)CC[C@H](NC(=O)CC[C@H](NC(=O)CCCCCCCCCCCCCCCCCCC(=O)O)C(=O)O)C(=O)O)C(=O)N[C@@H](CC(N)=O)C(=O)N[C@@H]([C@@H](C)O)C(=O)N[C@@H](C)C(=O)N[C@@H]([C@@H](C)O)C(=O)N1)[C@@H](C)O)C(=O)N1CCC[C@H]1C(=O)N[C@@H](CO)C(=O)N[C@@H](CO)C(=O)N[C@H](C(=O)N[C@@H](CC(N)=O)C(=O)N[C@H](C(=O)NCC(=O)N[C@@H](CO)C(=O)N[C@@H](CCCNC(=N)N)C(=O)N[C@H](C(=O)N[C@@H](Cc1ccc(O)cc1)C(N)=O)[C@@H](C)O)C(C)C)[C@@H](C)O
notes: not restated for each compound
B2: [Asp14,Arg17,Pro21,Pro27,Arg35]-h-amylin (peptide)
peptide: KCNTATCATQRLADFLRHSSPNFGAIPSSTNVGSRTY-NH2
modifications: disulfide 2-7
B3: N^ε1-[(4S)-4-carboxy-4-[[(4S)-4-carboxy-4-(19-carboxynonadecanoylamino)butanoyl]amino]butanoyl]-[Ser14,Arg17,Pro21,Pro27,Pro34,Glu35]-h-amylin (peptide)
peptide: K([γGlu-γGlu-C20 diacid])CNTATCATQRLASFLRHSSPNFGAIPSSTNVGPETY-NH2
modifications: disulfide 2-7; N-terminus assumed
SMILES: CC[C@H](C)[C@H](NC(=O)[C@H](C)NC(=O)CNC(=O)[C@H](Cc1ccccc1)NC(=O)[C@H](CC(N)=O)NC(=O)[C@@H]1CCCN1C(=O)[C@H](CO)NC(=O)[C@H](CO)NC(=O)[C@H](Cc1c[nH]cn1)NC(=O)[C@H](CCCNC(=N)N)NC(=O)[C@H](CC(C)C)NC(=O)[C@H](Cc1ccccc1)NC(=O)[C@H](CO)NC(=O)[C@H](C)NC(=O)[C@H](CC(C)C)NC(=O)[C@H](CCCNC(=N)N)NC(=O)[C@H](CCC(N)=O)NC(=O)[C@@H](NC(=O)[C@H](C)NC(=O)[C@@H]1CSSC[C@H](NC(=O)[C@@H](N)CCCCNC(=O)CC[C@H](NC(=O)CC[C@H](NC(=O)CCCCCCCCCCCCCCCCCCC(=O)O)C(=O)O)C(=O)O)C(=O)N[C@@H](CC(N)=O)C(=O)N[C@@H]([C@@H](C)O)C(=O)N[C@@H](C)C(=O)N[C@@H]([C@@H](C)O)C(=O)N1)[C@@H](C)O)C(=O)N1CCC[C@H]1C(=O)N[C@@H](CO)C(=O)N[C@@H](CO)C(=O)N[C@H](C(=O)N[C@@H](CC(N)=O)C(=O)N[C@H](C(=O)NCC(=O)N1CCC[C@H]1C(=O)N[C@@H](CCC(=O)O)C(=O)N[C@H](C(=O)N[C@@H](Cc1ccc(O)cc1)C(N)=O)[C@@H](C)O)C(C)C)[C@@H](C)O
notes: also called compound 120
B4: N^-1-[(4S)-4-carboxy-4-(19-carboxynonadecanoylamino)butanoyl]-Gly[Arg1,His14,Arg17,Pro21,Pro27,His34]-h-amylin (peptide)
peptide: {C20 diacid-γGlu}-GRCNTATCATQRLAHFLRHSSPNFGAIPSSTNVGHNTY-NH2
modifications: disulfide 3-8
SMILES: CC[C@H](C)[C@H](NC(=O)[C@H](C)NC(=O)CNC(=O)[C@H](Cc1ccccc1)NC(=O)[C@H](CC(N)=O)NC(=O)[C@@H]1CCCN1C(=O)[C@H](CO)NC(=O)[C@H](CO)NC(=O)[C@H](Cc1c[nH]cn1)NC(=O)[C@H](CCCNC(=N)N)NC(=O)[C@H](CC(C)C)NC(=O)[C@H](Cc1ccccc1)NC(=O)[C@H](Cc1c[nH]cn1)NC(=O)[C@H](C)NC(=O)[C@H](CC(C)C)NC(=O)[C@H](CCCNC(=N)N)NC(=O)[C@H](CCC(N)=O)NC(=O)[C@@H](NC(=O)[C@H](C)NC(=O)[C@@H]1CSSC[C@H](NC(=O)[C@H](CCCNC(=N)N)NC(=O)CNC(=O)CC[C@H](NC(=O)CCCCCCCCCCCCCCCCCCC(=O)O)C(=O)O)C(=O)N[C@@H](CC(N)=O)C(=O)N[C@@H]([C@@H](C)O)C(=O)N[C@@H](C)C(=O)N[C@@H]([C@@H](C)O)C(=O)N1)[C@@H](C)O)C(=O)N1CCC[C@H]1C(=O)N[C@@H](CO)C(=O)N[C@@H](CO)C(=O)N[C@H](C(=O)N[C@@H](CC(N)=O)C(=O)N[C@H](C(=O)NCC(=O)N[C@@H](Cc1c[nH]cn1)C(=O)N[C@@H](CC(N)=O)C(=O)N[C@H](C(=O)N[C@@H](Cc1ccc(O)cc1)C(N)=O)[C@@H](C)O)C(C)C)[C@@H](C)O
notes: 38 residues; also called compound 100
B5: N^-1-[(4S)-4-carboxy-4-(19-carboxynonadecanoylamino)butanoyl]-Gly[Arg1,Ala14,Arg17,Pro21,Pro27,His34]-h-amylin (peptide)
peptide: {C20 diacid-γGlu}-GRCNTATCATQRLAAFLRHSSPNFGAIPSSTNVGHNTY-NH2
modifications: disulfide 3-8
SMILES: CC[C@H](C)[C@H](NC(=O)[C@H](C)NC(=O)CNC(=O)[C@H](Cc1ccccc1)NC(=O)[C@H](CC(N)=O)NC(=O)[C@@H]1CCCN1C(=O)[C@H](CO)NC(=O)[C@H](CO)NC(=O)[C@H](Cc1c[nH]cn1)NC(=O)[C@H](CCCNC(=N)N)NC(=O)[C@H](CC(C)C)NC(=O)[C@H](Cc1ccccc1)NC(=O)[C@H](C)NC(=O)[C@H](C)NC(=O)[C@H](CC(C)C)NC(=O)[C@H](CCCNC(=N)N)NC(=O)[C@H](CCC(N)=O)NC(=O)[C@@H](NC(=O)[C@H](C)NC(=O)[C@@H]1CSSC[C@H](NC(=O)[C@H](CCCNC(=N)N)NC(=O)CNC(=O)CC[C@H](NC(=O)CCCCCCCCCCCCCCCCCCC(=O)O)C(=O)O)C(=O)N[C@@H](CC(N)=O)C(=O)N[C@@H]([C@@H](C)O)C(=O)N[C@@H](C)C(=O)N[C@@H]([C@@H](C)O)C(=O)N1)[C@@H](C)O)C(=O)N1CCC[C@H]1C(=O)N[C@@H](CO)C(=O)N[C@@H](CO)C(=O)N[C@H](C(=O)N[C@@H](CC(N)=O)C(=O)N[C@H](C(=O)NCC(=O)N[C@@H](Cc1c[nH]cn1)C(=O)N[C@@H](CC(N)=O)C(=O)N[C@H](C(=O)N[C@@H](Cc1ccc(O)cc1)C(N)=O)[C@@H](C)O)C(C)C)[C@@H](C)O
notes: 38 residues

Experiments:
rat calcitonin receptor = target: T1, rat calcitonin receptor; assay: SPA competition binding, displacement of 125I-calcitonin from membranes of BHK tk'ts 13 cells transfected with rat calcitonin receptor (Assay VIII)
[1] = target: T2, rat amylin receptor (rat calcitonin …); assay: SPA competition binding, displacement of 125I-rat amylin from membranes of BHK tk'ts 13 cells transfected with rat calcitonin receptor + rat RAMP 3 (Assay VI)
[2] = target: T3, human calcitonin receptor; assay: cell-based or functional assay

Binder | IC50 (rat calcitonin receptor) [nM] | IC50 [1] [nM] | hCTR funct. EC50 (pM) [2] [pM]
B1 | 536 | 1.69 | 
B2 | 30.9 |  | 
B3 |  |  | 887
B4 |  |  | 1730
B5 |  |  | 537
